Numbering of substitutions follows the chain as printed. Names may count otherwise.
B1: humanized B-F5 version H37L/L4L (antibody, V domains shown)
VH: EEQLVESGGGLVKPGGSLRLSCAASGFSFSDCRMYWLRQAPGKGLEWIGVISVKSENYGANYAESVRGRFTISRDDSKNTVYLQMNSLKTEDTAVYYCSASYYRYDVGAWFAYWGQGTLVTVSS
VL: DIVLTQSPDSLAVSLGERATINCRASKSVSTSGYSYIYWYQQKPGQPPKLLIYLASILESGVPDRFSGSGSGTDFTLTISSLQAEDVAVYYCQHSRELPWTFGQGTKVEIK
notes: also called hB-F5; H37L/L4L IgG1
B2: humanized B-F5 version H37V/L4L (antibody, V domains shown)
VH: B1 VH with L37V
VL: B1 VL
notes: also called hB-F5
B3: humanized B-F5 version H37V/L4M (antibody, V domains shown)
VH: B1 VH with L37V
VL: B1 VL with L4M
notes: also called hB-F5
B4: humanized B-F5 version H37L/L4M (antibody, IgG1, V domains shown)
VH: B1 VH
VL: B1 VL with L4M
notes: also called hB-F5; H37L/L4M IgG1

molecular target: T1, soluble CD4 (human, UniProt P01730 26-396); assay: competitive ELISA against biotinylated mB-F5 on coated soluble CD4, 37 C 2 hours
T1 construct: extracellular domain
Procedure: Culture supernatants of transfectomas producing the four versions of hB-F5 were collected, and concentrated. The different antibodies were purified from culture supernatants by affinity chromatography using protein A Sepharose and assessed for their CD4 binding activity by measuring, by means of competitive ELISA, their inhibitory activities against the binding of biotinylated mB-F5 to soluble CD4 coated on microtiter plates. Incubation time is 2 hours for 37 C and overnight for 4 C.

Row | Binder | Relative binding activity (% of mB-F5)
1 | B1 | 30 % of mB-F5
2 | B2 | 10 % of mB-F5
3 | B3 | 10 % of mB-F5
4 | B4 | 30 % of mB-F5

Source: patent US20090208496A1 (BIOTEST, published 2009)
